The results in this text go back to patent US20230381331A1 (HANMI PHARM, published 2023).

The chains are these.
T1: human GIP receptor (human, UniProt P48546 22-466)
T1 sequence (looked up): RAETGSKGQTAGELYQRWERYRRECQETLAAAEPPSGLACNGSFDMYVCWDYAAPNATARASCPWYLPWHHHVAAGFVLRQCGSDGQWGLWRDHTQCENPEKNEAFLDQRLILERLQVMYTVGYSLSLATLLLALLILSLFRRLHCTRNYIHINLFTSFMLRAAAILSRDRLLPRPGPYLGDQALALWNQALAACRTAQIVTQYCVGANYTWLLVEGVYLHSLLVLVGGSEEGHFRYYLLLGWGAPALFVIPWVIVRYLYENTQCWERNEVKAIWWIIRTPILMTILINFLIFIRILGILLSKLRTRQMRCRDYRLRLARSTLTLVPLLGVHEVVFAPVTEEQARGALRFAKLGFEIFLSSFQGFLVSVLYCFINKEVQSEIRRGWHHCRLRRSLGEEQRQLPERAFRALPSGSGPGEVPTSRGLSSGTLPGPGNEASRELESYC

B1: GIP derivative of SEQ ID NO: 11 (peptide)
peptide: Y[Aib]EGTFISDYSIAMDAIAQQDFVNWLLAQKGKKNDWKHNITQC
modifications: not fully specified; printed as YAibEGT FISDYSIAMDAIAQQDFVNWLLAQKGKKNDWKHNITQC

Non-standard residues stand in square brackets, D forms with d. No end group written: not given here. Aib = CC(C)(N)C(=O)O

The target of this test is T1, human GIP receptor. The test is described as follows: cell-based or functional assay.
For Y[Aib]EGTFISDYSIAMDAIAQQDFVNWLLAQKPSSGAPPPSC (not fully specified) [GIP derivative of SEQ ID NO: 1], the “In vitro activity of GIP derivative compared to human native GIP in human GIP receptor (%) (cAMP EC50, LANCE cAMP kit, CHO cells)” value is 49.3%.

Turning to Y[Aib]EGTFISDYSI[Aib]MDAIAQQDFVNWLLAGGPSSGAPPPSC [GIP derivative of SEQ ID NO: 3], the “In vitro activity of GIP derivative compared to human native GIP in human GIP receptor (%) (cAMP EC50, LANCE cAMP kit, CHO cells)” value came out at 15.6%.

In the case of Y[Aib]EGTFISDYSIAMDGIAQQDFVNWLLAQKPSSGAPPPSC (not fully specified) [GIP derivative of SEQ ID NO: 16], the “In vitro activity of GIP derivative compared to human native GIP in human GIP receptor (%) (cAMP EC50, LANCE cAMP kit, CHO cells)” value turned out to be 11.3%.

With Y[Aib]EGTFISDYSIYLDKQAQKEFVNWLL[Aib]GGPSSGAPPPSC [GIP derivative of SEQ ID NO: 23], the “In vitro activity of GIP derivative compared to human native GIP in human GIP receptor (%) (cAMP EC50, LANCE cAMP kit, CHO cells)” value is 87.6%.

For Y[Aib]EGTFISDYSIYLDKQAA[Aib]EFVNWLLAQKC (not fully specified) [GIP derivative of SEQ ID NO: 13], the “In vitro activity of GIP derivative compared to human native GIP in human GIP receptor (%) (cAMP EC50, LANCE cAMP kit, CHO cells)” value came to 31.1%.

As for Y[Aib]EGTFISDYSIAMDAIAQQDFVNWLLAGGPSSGAPPPSC [GIP derivative of SEQ ID NO: 2], the “In vitro activity of GIP derivative compared to human native GIP in human GIP receptor (%) (cAMP EC50, LANCE cAMP kit, CHO cells)” value was found to be 13.9%.

Take Y[Aib]EGTFISDYSIYLDKQAA[Aib]EFVQWLIAGHPSSGAPPPC [GIP derivative of SEQ ID NO: 26]: the “In vitro activity of GIP derivative compared to human native GIP in human GIP receptor (%) (cAMP EC50, LANCE cAMP kit, CHO cells)” value came to 66.7%.

Regarding Y[Aib]EGTFISDYSIYLDKQAA[Aib]EFVNWLL[Aib]GGPSSGAPPPSC [GIP derivative of SEQ ID NO: 20], the “In vitro activity of GIP derivative compared to human native GIP in human GIP receptor (%) (cAMP EC50, LANCE cAMP kit, CHO cells)” value amounted to 75.3%.

With Y[Aib]EGTFISDYSIQMDAIAQQDFVNWLLAGGPSSGAPPPSC [GIP derivative of SEQ ID NO: 5], the “In vitro activity of GIP derivative compared to human native GIP in human GIP receptor (%) (cAMP EC50, LANCE cAMP kit, CHO cells)” value was found to be 12.1%.

Consider Y[Aib]EGTFISDYSIYLDAQAA[Aib]EFVNWLLAQKC (not fully specified) [GIP derivative of SEQ ID NO: 14], for which the “In vitro activity of GIP derivative compared to human native GIP in human GIP receptor (%) (cAMP EC50, LANCE cAMP kit, CHO cells)” value is 17.4%.

Consider Y[Aib]EGTFISDYSIYLDAQAAKEFIAWLLAGGPSSGAPPPSC (not fully specified) [GIP derivative of SEQ ID NO: 10], for which the “In vitro activity of GIP derivative compared to human native GIP in human GIP receptor (%) (cAMP EC50, LANCE cAMP kit, CHO cells)” value was 13.9%.

Turning to Y[Aib]EGTFISDYSIYLDKQAA[Aib]EFVNWLLAQKGKKNDWKHNITQC (not fully specified) [GIP derivative of SEQ ID NO: 12], the “In vitro activity of GIP derivative compared to human native GIP in human GIP receptor (%) (cAMP EC50, LANCE cAMP kit, CHO cells)” value was determined as 49.2%.

As to Y[Aib]EGTFISDYSIYLDKQAA[Aib]EFVQWLI[Aib]GGPSSGAPPPSC [GIP derivative of SEQ ID NO: 25], the “In vitro activity of GIP derivative compared to human native GIP in human GIP receptor (%) (cAMP EC50, LANCE cAMP kit, CHO cells)” value was 78.3%.

As for Y[Aib]EGTFISDYSIYLDKQAAQEFVNWLLAQKPSSGAPPPSC [GIP derivative of SEQ ID NO: 18], the “In vitro activity of GIP derivative compared to human native GIP in human GIP receptor (%) (cAMP EC50, LANCE cAMP kit, CHO cells)” value was determined as 13.6%.

For the molecule Y[Aib]EGTFISDYSIAMDKIAQQDFVNWLLAQKPSSGAPPPSC (not fully specified) [GIP derivative of SEQ ID NO: 15], the “In vitro activity of GIP derivative compared to human native GIP in human GIP receptor (%) (cAMP EC50, LANCE cAMP kit, CHO cells)” value was 31.1%.

Y[Aib]EGTFISDYSIYLDKQAA[Aib]EFVNWLL[Aib]GHPSSGAPPPSC [GIP derivative of SEQ ID NO: 19]: the “In vitro activity of GIP derivative compared to human native GIP in human GIP receptor (%) (cAMP EC50, LANCE cAMP kit, CHO cells)” value turned out to be 66.7%.

Y[Aib]EGTFISDYSIYLDAIAQQDFVNWLLAGGPSSGAPPPSC [GIP derivative of SEQ ID NO: 6]: the “In vitro activity of GIP derivative compared to human native GIP in human GIP receptor (%) (cAMP EC50, LANCE cAMP kit, CHO cells)” value was 17.4%.

As for B1, the “In vitro activity of GIP derivative compared to human native GIP in human GIP receptor (%) (cAMP EC50, LANCE cAMP kit, CHO cells)” value was 122%.

On to Y[Aib]EGTFISDYSI[Aib]LDKQAA[Aib]EFVNWLL[Aib]GHPSSGAPPPSC [GIP derivative of SEQ ID NO: 24], for which the “In vitro activity of GIP derivative compared to human native GIP in human GIP receptor (%) (cAMP EC50, LANCE cAMP kit, CHO cells)” value turned out to be 183%.

As for Y[Aib]EGTFISDYSIYLDKQAA[Aib]EFVNWLLAGHPSSGAPPPSC [GIP derivative of SEQ ID NO: 22], the “In vitro activity of GIP derivative compared to human native GIP in human GIP receptor (%) (cAMP EC50, LANCE cAMP kit, CHO cells)” value came to 71.6%.

Regarding Y[Aib]EGTFISDYSIYLDAQAQQDFVNWLLAGGPSSGAPPPSC [GIP derivative of SEQ ID NO: 7], the “In vitro activity of GIP derivative compared to human native GIP in human GIP receptor (%) (cAMP EC50, LANCE cAMP kit, CHO cells)” value was 19.6%.

Take Y[Aib]EGTFISDYSIYLDAQAAKDFVNWLLAGGPSSGAPPPSC [GIP derivative of SEQ ID NO: 9]: the “In vitro activity of GIP derivative compared to human native GIP in human GIP receptor (%) (cAMP EC50, LANCE cAMP kit, CHO cells)” value is 2%.

For the molecule Y[Aib]EGTFISDYSIYLDAQAA[Aib]DFVNWLLAGGPSSGAPPPSC [GIP derivative of SEQ ID NO: 8], the “In vitro activity of GIP derivative compared to human native GIP in human GIP receptor (%) (cAMP EC50, LANCE cAMP kit, CHO cells)” value stood at 1.9%.

As to Y[Aib]EGTFISDYSIALEKQAQQDFVNWLLAGGPSSGAPPPSC [GIP derivative of SEQ ID NO: 17], the “In vitro activity of GIP derivative compared to human native GIP in human GIP receptor (%) (cAMP EC50, LANCE cAMP kit, CHO cells)” value is 111%.

Take Y[Aib]EGTFISDYSI[Aib]LDKQAA[Aib]EFVNWLL[Aib]GGPSSGAPPPSC [GIP derivative of SEQ ID NO: 21]: the “In vitro activity of GIP derivative compared to human native GIP in human GIP receptor (%) (cAMP EC50, LANCE cAMP kit, CHO cells)” value amounted to 123%.

Turning to Y[Aib]EGTFISDYSIYMDAIAQQDFVNWLLAGGPSSGAPPPSC [GIP derivative of SEQ ID NO: 4], the “In vitro activity of GIP derivative compared to human native GIP in human GIP receptor (%) (cAMP EC50, LANCE cAMP kit, CHO cells)” value turned out to be 10.5%.
